From US20250084176A1 (F STAR BETA, published 2025)

T1: human GITR (human, UniProt Q9Y5U5 26-161, limits assumed)
T1 sequence (looked up): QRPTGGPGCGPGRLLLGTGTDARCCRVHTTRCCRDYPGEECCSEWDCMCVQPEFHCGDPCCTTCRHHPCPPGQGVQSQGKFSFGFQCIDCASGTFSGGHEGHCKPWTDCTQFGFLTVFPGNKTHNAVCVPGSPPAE

T2: human OX40 (human, UniProt P43489 29-216, limits assumed)
T2 sequence (looked up): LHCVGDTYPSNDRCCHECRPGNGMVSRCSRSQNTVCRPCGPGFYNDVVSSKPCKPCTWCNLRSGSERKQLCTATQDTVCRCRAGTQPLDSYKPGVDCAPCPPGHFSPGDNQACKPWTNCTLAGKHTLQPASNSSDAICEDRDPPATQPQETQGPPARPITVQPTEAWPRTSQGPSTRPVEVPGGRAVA


Tests used:
[1] = target: human CD137, full length, on cells (human, UniProt Q07011 24-255); assay: cell-based or functional assay
human CD40 = human CD40 (human, UniProt P25942 21-193); assay: SPR (Biacore T200), receptor amine-coupled to CM5 chip
Experimental: (§1) The specificity of the anti-human CD137 Fcabs for human CD137 compared to other related TNFSFR family members was tested. 8 of the Fcabs were tested in mock mAb² (HeID1.3) format and measured by SPR in a Biacore T200 (GE Healthcare) by testing for binding to other human TNFRSF receptors: CD40, OX40 and GITR. Amine coupling (amine coupling kit, GE Healthcare, BR-1000-50) was used to coat human CD40, GITR and OX40 to approximately 1000 RU in Biacore CM5 chips (GE Healthcare, cat no 29149603). […] The chip was regenerated by injection of 10 mM glycine pH 2.5 for 12 s at 30 μl/min. Antibodies specific to the different TNFRSF members were used as positive controls to verify Biacore chip coating. Data was double reference subtracted and analysed using BIAevaluation 3.2 software.

human GITR = target: T1, human GITR; assay: as above
Experimental: as §1

human OX40 = target: T2, human OX40; assay: as above
Experimental: as §1

hCD137-mFc-Avi = target: T3, hCD137-mFc-Avi (human; mouse, UniProt Q07011 24-186, one biotin on the Avi sequence of each monomer (BirA); unbiotinylated in the SPR of Example 5.6); assay: flow cytometry of the yeast-displayed clone, 10 nM dimeric human antigen
T3 construct: Made in-house in HEK293-6E; also called human CD137-mFc-Avi; dimeric human CD137; not shown: mouse IgG2a Fc domain (mIgG2a Fc)
T3 sequence (Q07011 24-186): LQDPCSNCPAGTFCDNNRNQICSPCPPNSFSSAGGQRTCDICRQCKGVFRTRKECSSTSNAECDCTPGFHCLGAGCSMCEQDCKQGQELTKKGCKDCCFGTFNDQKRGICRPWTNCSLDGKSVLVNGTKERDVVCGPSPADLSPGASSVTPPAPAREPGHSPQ

Sequence of human CD137, full length, on cells (Q07011 24-255): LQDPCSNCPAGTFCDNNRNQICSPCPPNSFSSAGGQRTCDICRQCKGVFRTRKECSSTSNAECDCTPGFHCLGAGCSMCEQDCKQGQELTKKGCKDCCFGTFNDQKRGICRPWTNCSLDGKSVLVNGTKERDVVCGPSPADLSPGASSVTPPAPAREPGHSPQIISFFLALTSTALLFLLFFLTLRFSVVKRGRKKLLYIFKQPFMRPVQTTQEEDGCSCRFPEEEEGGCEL
Sequence of human CD40 (P25942 21-193 limits assumed): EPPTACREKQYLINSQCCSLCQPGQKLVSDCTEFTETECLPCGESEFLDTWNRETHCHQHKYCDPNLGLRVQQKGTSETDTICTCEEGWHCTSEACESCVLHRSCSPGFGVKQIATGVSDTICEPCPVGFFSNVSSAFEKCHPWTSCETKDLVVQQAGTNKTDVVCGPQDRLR

Binder	% APC positive cells (hCD137-mFc-Avi)	also measured
FS22-053-009/HelD1.3 (bispecific antibody, human IgG1, kappa, Mock mAb^2, IgG1 without LALA; also called FS22-053-009/HeID1.3) heavy: QVQLQESGPGLVRPSQTLSLTCTVSGSTFSGYGVNWVRQPPGRGLEWIGMIWGDGNTDYNSALKSRVTMLVDTSKNQFSLRLSSVTAADTAVYYCARERDYRLDYWGQGSLVTVSSASTKGPSVFPLAPSSKSTSGGTAALGCLVKDYFPEPVTVSWNSGALTSGVHTFPAVLQSSGLYSLSSVVTVPSSSLGTQTYICNVNHKPSNTKVDKKVEPKSCDKTHTCPPCPAPELLGGPSVFLFPPKPKDTLMISRTPEVTCVVVDVSHEDPEVKFNWYVDGVEVHNAKTKPREEQYNSTYRVVSVLTVLHQDWLNGKEYKCKVSNKALPAPIEKTISKAKGQPREPQVYTLPPSRDELNPPYLFSNQVSLTCLVKGFYPSDIAVEWESNGQPENNYKTTPPVLDSDGSFFLYSKLTVEHTRWLDGNVFSCSVMHEALHNHYTQKSLSLSPG light: DIQMTQSPASLSASVGETVTITCRASGNIHNYLAWYQQKQGKSPQLLVYNAKTLADGVPSRFSGSGSGTQYSLKINSLQPEDFGSYYCQHFWSTPRTFGGGTKLEIKRTVAAPSVFIFPPSDEQLKSGTASVVCLLNNFYPREAKVQWKVDNALQSGNSQESVTEQDSKDSTYSLSSTLTLSKADYEKHKVYACEVTHQGLSSPVTKSFNRGEC	–	NF-kB signalling, HEK.FRT.luc.hCD137, +XL (EC50 nM) [1]: 64.6 nM; binding result (human CD40): no binding (tested: starting at 1 µM); binding result (human GITR): no binding (tested: starting at 1 µM); binding result (human OX40): no binding (tested: starting at 1 µM)
FS22-172-006/HelD1.3 (bispecific antibody, human IgG1, kappa) heavy: QVQLQESGPGLVRPSQTLSLTCTVSGSTFSGYGVNWVRQPPGRGLEWIGMIWGDGNTDYNSALKSRVTMLVDTSKNQFSLRLSSVTAADTAVYYCARERDYRLDYWGQGSLVTVSSASTKGPSVFPLAPSSKSTSGGTAALGCLVKDYFPEPVTVSWNSGALTSGVHTFPAVLQSSGLYSLSSVVTVPSSSLGTQTYICNVNHKPSNTKVDKKVEPKSCDKTHTCPPCPAPELLGGPSVFLFPPKPKDTLMISRTPEVTCVVVDVSHEDPEVKFNWYVDGVEVHNAKTKPREEQYNSTYRVVSVLTVLHQDWLNGKEYKCKVSNKALPAPIEKTISKAKGQPREPQVYTLPPSRDELRKYYPPYNQLSLTCLVKGFYPSDIAVEWESNGQPENNYKTTPPVLDSDGSFFLYSKLTVGADRWLEGNVFSCSVMHEALHNHYTQKSLSLSPG light: DIQMTQSPASLSASVGETVTITCRASGNIHNYLAWYQQKQGKSPQLLVYNAKTLADGVPSRFSGSGSGTQYSLKINSLQPEDFGSYYCQHFWSTPRTFGGGTKLEIKRTVAAPSVFIFPPSDEQLKSGTASVVCLLNNFYPREAKVQWKVDNALQSGNSQESVTEQDSKDSTYSLSSTLTLSKADYEKHKVYACEVTHQGLSSPVTKSFNRGEC	–	NF-kB signalling, HEK.FRT.luc.hCD137, +XL (EC50 nM) [1]: 382 nM
FS22-172-002/HelD1.3 (bispecific antibody, human IgG1, kappa) heavy: QVQLQESGPGLVRPSQTLSLTCTVSGSTFSGYGVNWVRQPPGRGLEWIGMIWGDGNTDYNSALKSRVTMLVDTSKNQFSLRLSSVTAADTAVYYCARERDYRLDYWGQGSLVTVSSASTKGPSVFPLAPSSKSTSGGTAALGCLVKDYFPEPVTVSWNSGALTSGVHTFPAVLQSSGLYSLSSVVTVPSSSLGTQTYICNVNHKPSNTKVDKKVEPKSCDKTHTCPPCPAPELLGGPSVFLFPPKPKDTLMISRTPEVTCVVVDVSHEDPEVKFNWYVDGVEVHNAKTKPREEQYNSTYRVVSVLTVLHQDWLNGKEYKCKVSNKALPAPIEKTISKAKGQPREPQVYTLPPSRDELPFQMPPYNQVSLTCLVKGFYPSDIAVEWESNGQPENNYKTTPPVLDSDGSFFLYSKLTVGADRWLEGNVFSCSVMHEALHNHYTQKSLSLSPG light: DIQMTQSPASLSASVGETVTITCRASGNIHNYLAWYQQKQGKSPQLLVYNAKTLADGVPSRFSGSGSGTQYSLKINSLQPEDFGSYYCQHFWSTPRTFGGGTKLEIKRTVAAPSVFIFPPSDEQLKSGTASVVCLLNNFYPREAKVQWKVDNALQSGNSQESVTEQDSKDSTYSLSSTLTLSKADYEKHKVYACEVTHQGLSSPVTKSFNRGEC	–	NF-kB signalling, HEK.FRT.luc.hCD137, +XL (EC50 nM) [1]: 124 nM
FS22-053-010/HelD1.3 (bispecific antibody, human IgG1, kappa, Mock mAb^2, IgG1 without LALA; also called FS22-053-010/HeID1.3) heavy: QVQLQESGPGLVRPSQTLSLTCTVSGSTFSGYGVNWVRQPPGRGLEWIGMIWGDGNTDYNSALKSRVTMLVDTSKNQFSLRLSSVTAADTAVYYCARERDYRLDYWGQGSLVTVSSASTKGPSVFPLAPSSKSTSGGTAALGCLVKDYFPEPVTVSWNSGALTSGVHTFPAVLQSSGLYSLSSVVTVPSSSLGTQTYICNVNHKPSNTKVDKKVEPKSCDKTHTCPPCPAPELLGGPSVFLFPPKPKDTLMISRTPEVTCVVVDVSHEDPEVKFNWYVDGVEVHNAKTKPREEQYNSTYRVVSVLTVLHQDWLNGKEYKCKVSNKALPAPIEKTISKAKGQPREPQVYTLPPSRDELNPPYLFSNQVSLTCLVKGFYPSDIAVEWESNGQPENNYKTTPPVLDSDGSFFLYSKLTVDYMRWLDGNVFSCSVMHEALHNHYTQKSLSLSPG light: DIQMTQSPASLSASVGETVTITCRASGNIHNYLAWYQQKQGKSPQLLVYNAKTLADGVPSRFSGSGSGTQYSLKINSLQPEDFGSYYCQHFWSTPRTFGGGTKLEIKRTVAAPSVFIFPPSDEQLKSGTASVVCLLNNFYPREAKVQWKVDNALQSGNSQESVTEQDSKDSTYSLSSTLTLSKADYEKHKVYACEVTHQGLSSPVTKSFNRGEC	–	NF-kB signalling, HEK.FRT.luc.hCD137, +XL (EC50 nM) [1]: 47.5 nM; binding result (human CD40): no binding (tested: starting at 1 µM); binding result (human GITR): no binding (tested: starting at 1 µM); binding result (human OX40): no binding (tested: starting at 1 µM)
FS22-172-004, yeast-displayed clone (designed binder) GQPREPQVYTLPPSRDELNYIYPPYNQVSLTCLVKGFYPSDIAVEWESNGQPENNYKTTPPVLDSDGSFFLYSKLTVGADRWLEGNVFSCSVMHEALHNHYTQKSLSLSPG	> 10%	–
FS22-053-012, yeast-displayed clone (designed binder) GQPREPQVYTLPPSRDELNPPYLFSNQVSLTCLVKGFYPSDIAVEWESNGQPENNYKTTPPVLDSDGSFFLYSKLTVDHMRWLEGNVFSCSVMHEALHNHYTQKSLSLSPG	> 30%	–
FS22-053-008, yeast-displayed clone (designed binder) GQPREPQVYTLPPSRDELNPPYLFSNQVSLTCLVKGFYPSDIAVEWESNGQPENNYKTTPPVLDSDGSFFLYSKLTVDYWRWLEGNVFSCSVMHEALHNHYTQKSLSLSPG	> 30%	–
FS22-053-009, yeast-displayed clone (designed binder) GQPREPQVYTLPPSRDELNPPYLFSNQVSLTCLVKGFYPSDIAVEWESNGQPENNYKTTPPVLDSDGSFFLYSKLTVEHTRWLDGNVFSCSVMHEALHNHYTQKSLSLSPG	> 30%	–
FS22-053-011, yeast-displayed clone (designed binder) GQPREPQVYTLPPSRDELNPPYLFSNQVSLTCLVKGFYPSDIAVEWESNGQPENNYKTTPPVLDSDGSFFLYSKLTVDYWRWTDGNVFSCSVMHEALHNHYTQKSLSLSPG	> 30%	–
FS22-053-010, yeast-displayed clone (designed binder) GQPREPQVYTLPPSRDELNPPYLFSNQVSLTCLVKGFYPSDIAVEWESNGQPENNYKTTPPVLDSDGSFFLYSKLTVDYMRWLDGNVFSCSVMHEALHNHYTQKSLSLSPG	> 30%	–

Now from value to binder, other results behind:

% APC positive cells (hCD137-mFc-Avi)	Binder	also measured
> 10%	FS22-172-002, yeast-displayed clone (designed binder) GQPREPQVYTLPPSRDELPFQMPPYNQVSLTCLVKGFYPSDIAVEWESNGQPENNYKTTPPVLDSDGSFFLYSKLTVGADRWLEGNVFSCSVMHEALHNHYTQKSLSLSPG	–
> 10%	FS22-172-003, yeast-displayed clone (designed binder) GQPREPQVYTLPPSRDELPYIIPPYNQVSLTCLVKGFYPSDIAVEWESNGQPENNYKTTPPVLDSDGSFFLYSKLTVGADRWLEGNVFSCSVMHEALHNHYTQKSLSLSPG	–
> 10%	FS22-172-006, yeast-displayed clone (designed binder) GQPREPQVYTLPPSRDELRKYYPPYNQLSLTCLVKGFYPSDIAVEWESNGQPENNYKTTPPVLDSDGSFFLYSKLTVGADRWLEGNVFSCSVMHEALHNHYTQKSLSLSPG	–
> 10%	FS22-172-005, yeast-displayed clone (designed binder) GQPREPQVYTLPPSRDELQQVYPPYNQVSLTCLVKGFYPSDIAVEWESNGQPENNYKTTPPVLDSDGSFFLYSKLTVGADRWLEGNVFSCSVMHEALHNHYTQKSLSLSPG	–
> 10%	FS22-172-001, yeast-displayed clone (designed binder) GQPREPQVYTLPPSRDELPFVMPPYNQVSLTCLVKGFYPSDIAVEWESNGQPENNYKTTPPVLDSDGSFFLYSKLTVGADRWLEGNVFSCSVMHEALHNHYTQKSLSLSPG	–
